Data as given in paper PMC9482650, “Quantitative fragmentomics allow affinity mapping of interactomes” (Nature Communications, 2022).

T1: SNTG2, Q9NY99
T1 sequence (Q9NY99 68-166, limits assumed, looked up): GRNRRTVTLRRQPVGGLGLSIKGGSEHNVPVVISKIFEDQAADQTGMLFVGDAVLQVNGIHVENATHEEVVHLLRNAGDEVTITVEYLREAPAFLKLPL

T2: MPP6, Q9NZW5
T2 sequence (Q9NZW5 125-219, limits assumed, looked up): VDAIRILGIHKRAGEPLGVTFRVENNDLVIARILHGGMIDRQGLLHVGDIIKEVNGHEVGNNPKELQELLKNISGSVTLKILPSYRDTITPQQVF

T3: MPP2, Q14168
T3 sequence (Q14168 180-250, limits assumed, looked up): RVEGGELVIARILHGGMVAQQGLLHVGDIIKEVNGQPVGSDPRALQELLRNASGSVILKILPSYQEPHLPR

T4: APBA2_2, Q99767
T4 sequence (Q99767 654-744, limits assumed, looked up): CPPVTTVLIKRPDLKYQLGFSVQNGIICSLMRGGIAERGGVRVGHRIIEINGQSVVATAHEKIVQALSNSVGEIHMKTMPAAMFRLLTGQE

T5: MPP7, Q5T2T1
T5 sequence (Q5T2T1 134-230, limits assumed, looked up): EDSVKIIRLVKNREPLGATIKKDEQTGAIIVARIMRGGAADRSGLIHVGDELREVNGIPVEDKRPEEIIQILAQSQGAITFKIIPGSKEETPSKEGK

T6: ARHGAP21, Q5T5U3
T6 sequence (Q5T5U3 45-169, limits assumed, looked up): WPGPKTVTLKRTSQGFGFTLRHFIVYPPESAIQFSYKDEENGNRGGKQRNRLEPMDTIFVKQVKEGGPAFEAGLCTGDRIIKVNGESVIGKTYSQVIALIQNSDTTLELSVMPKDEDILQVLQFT

T7: PCLO, Q9Y6V0
T7 sequence (Q9Y6V0 4491-4600, limits assumed, looked up): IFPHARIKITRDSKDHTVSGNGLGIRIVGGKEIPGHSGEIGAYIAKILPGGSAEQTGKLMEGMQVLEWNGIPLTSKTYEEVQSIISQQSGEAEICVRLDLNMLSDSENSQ

T8: GRIP1_7, Q9Y3R0
T8 sequence (Q9Y3R0 999-1096, limits assumed, looked up): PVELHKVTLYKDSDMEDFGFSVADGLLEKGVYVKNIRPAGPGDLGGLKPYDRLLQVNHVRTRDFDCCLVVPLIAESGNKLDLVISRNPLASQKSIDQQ

T9: APBA1_2, Q02410
T9 sequence (Q02410 742-832, limits assumed, looked up): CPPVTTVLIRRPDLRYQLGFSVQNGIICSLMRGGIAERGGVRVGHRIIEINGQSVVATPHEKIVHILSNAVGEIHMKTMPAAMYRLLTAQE

T10: MPDZ_5, O75970
T10 sequence (O75970 695-796, limits assumed, looked up): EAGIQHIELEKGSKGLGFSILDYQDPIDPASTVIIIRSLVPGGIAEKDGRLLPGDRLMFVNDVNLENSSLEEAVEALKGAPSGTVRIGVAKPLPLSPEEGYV

T11: MPDZ_10, O75970
T11 sequence (O75970 1624-1722, limits assumed, looked up): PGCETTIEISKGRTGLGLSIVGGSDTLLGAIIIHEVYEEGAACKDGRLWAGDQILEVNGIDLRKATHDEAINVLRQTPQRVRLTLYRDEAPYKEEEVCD

T12: HTRA4, P83105
T12 sequence (P83105 378-476, limits assumed, looked up): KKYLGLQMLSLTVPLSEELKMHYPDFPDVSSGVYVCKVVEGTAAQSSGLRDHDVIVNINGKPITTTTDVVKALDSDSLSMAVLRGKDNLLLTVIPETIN


Tests used:
Assay in all cases: holdup assay
Parameters in all cases: key: below the threshold = too weak to quantify, mostly under pKd 3.1 to 4
Details in all cases: plain residues with an end cap or a label only (N-terminal biotin on a linker: ado-ado)
SNTG2, Q9NY99 = target: T1, SNTG2, Q9NY99
MPP6, Q9NZW5 = target: T2, MPP6, Q9NZW5
DLG1_1, Q12959 = target: DLG1_1, Q12959
MPP2, Q14168 = target: T3, MPP2, Q14168
LAP2, Q96RT1 = target: LAP2, Q96RT1
LAP2, Q96RT1, sequence (Q96RT1 other isoform, or with tags, fused parts or gaps): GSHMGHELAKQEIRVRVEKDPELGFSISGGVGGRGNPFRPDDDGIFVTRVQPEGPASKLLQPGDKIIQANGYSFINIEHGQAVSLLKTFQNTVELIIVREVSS

GRIP2_4, Q9C0E4 = target: GRIP2_4, Q9C0E4
GRIP2_4, Q9C0E4, sequence (Q9C0E4 446-548): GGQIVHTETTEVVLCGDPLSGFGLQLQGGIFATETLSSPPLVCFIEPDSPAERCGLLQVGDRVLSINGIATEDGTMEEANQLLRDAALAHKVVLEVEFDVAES

IL16_1, Q14005 = target: IL16_1, Q14005
IL16_1, Q14005, sequence (Q14005 210-306): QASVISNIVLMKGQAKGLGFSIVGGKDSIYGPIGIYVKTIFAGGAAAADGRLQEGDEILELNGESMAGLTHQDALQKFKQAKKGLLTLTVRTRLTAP

NHERF4_2, Q86UT5 = target: NHERF4_2, Q86UT5
NHERF4_2, Q86UT5, sequence (Q86UT5 220-308): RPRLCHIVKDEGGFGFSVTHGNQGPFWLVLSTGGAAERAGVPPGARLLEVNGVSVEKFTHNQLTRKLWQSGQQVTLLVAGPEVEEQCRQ

LNX1_1, Q8TBB1 = target: LNX1_1, Q8TBB1
LNX1_1, Q8TBB1, sequence (Q8TBB1 261-371): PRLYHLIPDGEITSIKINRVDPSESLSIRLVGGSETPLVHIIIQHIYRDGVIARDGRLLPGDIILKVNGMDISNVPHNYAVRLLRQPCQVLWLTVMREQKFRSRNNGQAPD

APBA2_2, Q99767 = target: T4, APBA2_2, Q99767
MPP7, Q5T2T1 = target: T5, MPP7, Q5T2T1
DLG1_3, Q12959 = target: DLG1_3, Q12959
ARHGAP21, Q5T5U3 = target: T6, ARHGAP21, Q5T5U3
MAGI2_3, Q86UL8 = target: MAGI2_3, Q86UL8
MAGI2_3, Q86UL8, sequence (Q86UL8 600-682): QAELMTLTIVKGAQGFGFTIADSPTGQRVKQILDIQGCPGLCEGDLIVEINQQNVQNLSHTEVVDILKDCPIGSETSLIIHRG

PCLO, Q9Y6V0 = target: T7, PCLO, Q9Y6V0
NHERF2_2, Q15599 = target: NHERF2_2, Q15599
NHERF2_2, Q15599, sequence (Q15599 142-238): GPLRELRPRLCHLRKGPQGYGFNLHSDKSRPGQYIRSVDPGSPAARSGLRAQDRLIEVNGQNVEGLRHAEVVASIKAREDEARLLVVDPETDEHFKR

GRIP1_7, Q9Y3R0 = target: T8, GRIP1_7, Q9Y3R0
MAGI3_2, Q5TCQ9 = target: MAGI3_2, Q5TCQ9
MAGI3_2, Q5TCQ9, sequence (Q5TCQ9 398-503): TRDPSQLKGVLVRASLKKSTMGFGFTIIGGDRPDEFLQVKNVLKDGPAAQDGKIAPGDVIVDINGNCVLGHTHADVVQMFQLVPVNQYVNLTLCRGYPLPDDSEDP

APBA1_2, Q02410 = target: T9, APBA1_2, Q02410
MAGI2_6, Q86UL8 = target: MAGI2_6, Q86UL8
MAGI2_6, Q86UL8, sequence (Q86UL8 1141-1229): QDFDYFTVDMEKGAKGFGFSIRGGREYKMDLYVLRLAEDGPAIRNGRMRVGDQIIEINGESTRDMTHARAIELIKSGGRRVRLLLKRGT

MPDZ_5, O75970 = target: T10, MPDZ_5, O75970
MPDZ_10, O75970 = target: T11, MPDZ_10, O75970
GRIP2_5, Q9C0E4 = target: GRIP2_5, Q9C0E4
GRIP2_5, Q9C0E4, sequence (Q9C0E4 544-642): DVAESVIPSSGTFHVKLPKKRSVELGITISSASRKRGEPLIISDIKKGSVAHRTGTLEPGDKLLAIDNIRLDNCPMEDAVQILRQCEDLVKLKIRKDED

GRIP2_3, Q9C0E4 = target: GRIP2_3, Q9C0E4
GRIP2_3, Q9C0E4, sequence (Q9C0E4 238-339): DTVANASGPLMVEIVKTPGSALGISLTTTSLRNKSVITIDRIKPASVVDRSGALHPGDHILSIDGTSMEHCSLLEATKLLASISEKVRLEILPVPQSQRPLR

SCRIB_2, Q14160 = target: SCRIB_2, Q14160
SCRIB_2, Q14160, sequence (Q14160 857-960): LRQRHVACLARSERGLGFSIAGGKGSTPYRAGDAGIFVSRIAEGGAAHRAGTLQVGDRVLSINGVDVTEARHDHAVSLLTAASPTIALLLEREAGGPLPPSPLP

HTRA4, P83105 = target: T12, HTRA4, P83105

Binder	pKd (SNTG2, Q9NY99)	pKd (MPP6, Q9NZW5)	pKd (DLG1_1, Q12959)	pKd (MPP2, Q14168)	pKd (LAP2, Q96RT1)	pKd (GRIP2_4, Q9C0E4)	pKd (IL16_1, Q14005)	pKd (NHERF4_2, Q86UT5)	pKd (LNX1_1, Q8TBB1)	pKd (APBA2_2, Q99767)	pKd (MPP7, Q5T2T1)	pKd (DLG1_3, Q12959)	pKd (ARHGAP21, Q5T5U3)	pKd (MAGI2_3, Q86UL8)	pKd (PCLO, Q9Y6V0)	pKd (NHERF2_2, Q15599)	pKd (GRIP1_7, Q9Y3R0)	pKd (MAGI3_2, Q5TCQ9)	pKd (APBA1_2, Q02410)	pKd (MAGI2_6, Q86UL8)	other results
DQPLEKSTKL [AKAP10, O43572]	3.64	below the threshold	below the threshold	below the threshold	below the threshold	below the threshold	below the threshold	below the threshold	below the threshold	below the threshold	below the threshold	below the threshold	below the threshold	below the threshold	below the threshold	5.02	below the threshold	below the threshold	below the threshold	below the threshold	pKd (MPDZ_5, O75970): below the threshold; pKd (MPDZ_10, O75970): below the threshold; pKd (GRIP2_5, Q9C0E4): below the threshold; pKd (GRIP2_3, Q9C0E4): below the threshold; pKd (SCRIB_2, Q14160): below the threshold; pKd (HTRA4, P83105): below the threshold
PASAKGPLGV [CLDN19, Q8N6F1]	below the threshold	below the threshold	below the threshold	below the threshold	below the threshold	below the threshold	below the threshold	below the threshold	below the threshold	below the threshold	below the threshold	below the threshold	3.98	below the threshold	below the threshold	below the threshold	below the threshold	below the threshold	below the threshold	below the threshold	pKd (MPDZ_5, O75970): below the threshold; pKd (MPDZ_10, O75970): below the threshold; pKd (GRIP2_5, Q9C0E4): below the threshold; pKd (GRIP2_3, Q9C0E4): below the threshold; pKd (SCRIB_2, Q14160): below the threshold; pKd (HTRA4, P83105): below the threshold
RELVMRVTTV [MARCHF4, Q9P2E8]	4.64	3.59	5.19	below the threshold	3.79	below the threshold	4.33	below the threshold	3.98	below the threshold	below the threshold	5.12	below the threshold	4.56	below the threshold	below the threshold	below the threshold	5.07	3.65	4.55	pKd (MPDZ_5, O75970): below the threshold; pKd (MPDZ_10, O75970): 4.35; pKd (GRIP2_5, Q9C0E4): below the threshold; pKd (GRIP2_3, Q9C0E4): below the threshold; pKd (SCRIB_2, Q14160): 4.28; pKd (HTRA4, P83105): 4.74
QFTLRHWLKV [SLC6A3, Q01959]	below the threshold	below the threshold	below the threshold	3.87	below the threshold	below the threshold	below the threshold	below the threshold	below the threshold	below the threshold	below the threshold	below the threshold	4.09	below the threshold	below the threshold	below the threshold	below the threshold	below the threshold	below the threshold	below the threshold	pKd (MPDZ_5, O75970): below the threshold; pKd (MPDZ_10, O75970): below the threshold; pKd (GRIP2_5, Q9C0E4): below the threshold; pKd (GRIP2_3, Q9C0E4): below the threshold; pKd (SCRIB_2, Q14160): below the threshold; pKd (HTRA4, P83105): 4.1
